Experimental data published in publication PMC10762068, “Selective blockade of Cav1.2 (α1C) versus Cav1.3 (α1D) L-type calcium channels by the black mamba toxin calciseptine” (Nature Communications, 2024).

Assays:
Cav1.2 and Cav1.3 = settings: cited from earlier work
Excerpt: Despite the importance of dissecting the physiopathological roles of Cav1.2 and Cav1.3 channels in cardiac myocytes and neuronal cells, no selective pharmacological tool is currently available. […] Both distinct and complementary functions for Cav1.2 and Cav1.3 have been proposed in the central nervous system. For example, Cav1.2 is involved in hippocampal firing, spatial memory and LTP[52], as well as in the myelinisation process.

[1] = test system: Cav1.2 (ICav1.2) in isolated adult mouse ventricular myocytes; type: cell-based; settings: L-calchin 5 µM; preliminary; n=7/N=2
[2] = test system: calcium channel in rabbit cardiac myocytes; settings: reduction of calcium channel amplitude; cited from earlier work
Excerpt: (§1) A common short peptide between two Prolines at position 42 and 47 (PTAMWP) was predicted as the binding site for Cas and FS2 by Kini and co-workers[49]. […] Similar to Cas, block by L-calchin had no ef ...

isolated rat hearts = settings: cited from earlier work
Excerpt: as §1

[3] = test system: total ICaL (ICav1.2+ICav1.3) in SAN myocytes from wild-type mice; assay: ICaL, patch clamp, SAN myocytes from wild-type mice; type: cell-based, mouse; settings: nifedipine 3 µM after Cas 1 µM; holding −55 mV
Description: (§2) Hearts from Wild-Type and Cav1.3^−/− mice were removed under general anesthesia consisting of 0.01 mg/g xylazine (2% Rompun; Bayer AG) and 0.1 mg/g ketamine (Imalgène;Merial) and immersed in a pre-warmed (36 °C) Tyrode solution containing (mM): 140 NaCl, 5.4 KCl, 1 MgCl2, 1.8 CaCl2, 5.5 D-glucose, and 5 Hepes (adjusted to pH 7.4 with NaOH). […] SAN tissue was excised and transferred into a low-Ca^2+ solution containing (mM): 140 NaCl, 5.4 KCl, 0.5 MgCl2, 0.2 CaCl2, 1.2 KH2PO4, 50 taurine, 5.5 D-glucose, 1 mg/mL BSA, and 5 Hepes–NaOH (adjusted to pH 6.9 with NaOH) for 5 min. Then, enzymatic digestion was carried out for 20-25 min at 36 °C in the low-Ca^2+ solution containing LiberaseTH Research Grade (0.15 mg/mL; Roche, Mannheim, Germany) and elastase (0.5 mg/mL; Worthington, Lakewood, NJ, USA). Digestion was stopped by washing the SAN in a “Kraftbrühe” (KB) medium containing (mM) 100 K-glutamate, 10 K-aspartate, 25 KCl, 10 KH2PO4, 2 MgSO4, 20 taurine, 5 creatine, 0.5 EGTA, 20 D-glucose, 5 Hepes, and 1 mg/mL BSA (adjusted to pH 7.2 with KOH). Single SAN cells were then dissociated from the SAN tissue by manual agitation using a flame-forged Pasteur’s pipette. To recover the automaticity of the SAN cells, Ca^2+ was gradually reintroduced in the cell’s storage solution to a final concentration of 1.8 mM. SAN cells were then left to rest for 1 h before recordings.
(§3) For patch-clamp recordings of SAN myocytes, cells were harvested in custom-made chambers with glass bottoms for cell attachment. Cells were then super-fused with Tyrode’s solution warmed at 36 °C before recording. Action potentials and ionic currents were recorded using an Axon multi-clamp patch-clamp 700B amplifier. Voltage-gated L-type Ca^2+ currents (ICaL) were recorded using standard whole cell patch-clamp configuration. For recording ICaL, we used an extracellular recording solution contained (mM): 135 tetraethylammonium chloride (TEA-Cl), 10 4-aminopyridine (4-AP), 1 MgCl2, 0.03 tetrodotoxin (TTX), 1 g/L Glucose, 2 CaCl2, 10 Hepes, (adjusted to pH = 7.2 with TEAOH). […] Pacemaker activity was recorded by the perforated patch-clamp technique using escin (40 µg/ml). For recording cell automaticity glass pipettes were filled with the intracellular solution contained (mM): 80 K-Aspartate, 50 KCl, 1 MgCl2, 5 HEPES, 2 CaCl2, 5 EGTA, 3 ATP-Na+ salt; pH was adjusted to 7.2 with KOH. Escin was dissolved in sterile H2O and added to the intracellular solution right before each experiment.
(§4) In all experiments of cellular electrophysiology, we employed synthetized analog of Cas, commercially available at Latoxan (ID: L8109). The native peptide was purified from the venom of Dendroaspis polylepis purchased from Latoxan, as previoulsly described. The pure peptide was obtained after gel filtration, cation exchange and C18 reversed phase chromatography. Its measured molecular mass (7036.26 Da average) was in accordance with the mass calculated from sequence data (7036.22 Da).

[4] = test system: SAN myocytes from Wild-Type mice; assay: Spontaneous action potentials, perforated patch-clamp, SAN pacemaker myocytes; type: cell-based, mouse; settings: nifedipine (in Table 1 only 3 µM together with Cas)
Description: as §2, §3
We used an extracellular recording solution (Tyrode’s based) contained (mM): 140 NaCl, 5.4 KCl, 1 MgCl2, 1.8 CaCl2, 5 HEPES, 5.5 D-Glucose; pH was set to 7.4 with NaOH. AP parameters have been calculated as reported in Baudot et al.[10]. Data were analyzed using pCLAMP9 (Molecular Devices) and GraphPad Prism (GraphPad) software.
as §4

[5] = target: recombinant Cav1.2 (α1C) L-type calcium channel, Cav1.2-GFP (UniProt Q13936)
recombinant Cav1.2 (α1C) L-type calcium channel, Cav1.2-GFP, sequence (Q13936 other isoform, or with tags, fused parts or gaps): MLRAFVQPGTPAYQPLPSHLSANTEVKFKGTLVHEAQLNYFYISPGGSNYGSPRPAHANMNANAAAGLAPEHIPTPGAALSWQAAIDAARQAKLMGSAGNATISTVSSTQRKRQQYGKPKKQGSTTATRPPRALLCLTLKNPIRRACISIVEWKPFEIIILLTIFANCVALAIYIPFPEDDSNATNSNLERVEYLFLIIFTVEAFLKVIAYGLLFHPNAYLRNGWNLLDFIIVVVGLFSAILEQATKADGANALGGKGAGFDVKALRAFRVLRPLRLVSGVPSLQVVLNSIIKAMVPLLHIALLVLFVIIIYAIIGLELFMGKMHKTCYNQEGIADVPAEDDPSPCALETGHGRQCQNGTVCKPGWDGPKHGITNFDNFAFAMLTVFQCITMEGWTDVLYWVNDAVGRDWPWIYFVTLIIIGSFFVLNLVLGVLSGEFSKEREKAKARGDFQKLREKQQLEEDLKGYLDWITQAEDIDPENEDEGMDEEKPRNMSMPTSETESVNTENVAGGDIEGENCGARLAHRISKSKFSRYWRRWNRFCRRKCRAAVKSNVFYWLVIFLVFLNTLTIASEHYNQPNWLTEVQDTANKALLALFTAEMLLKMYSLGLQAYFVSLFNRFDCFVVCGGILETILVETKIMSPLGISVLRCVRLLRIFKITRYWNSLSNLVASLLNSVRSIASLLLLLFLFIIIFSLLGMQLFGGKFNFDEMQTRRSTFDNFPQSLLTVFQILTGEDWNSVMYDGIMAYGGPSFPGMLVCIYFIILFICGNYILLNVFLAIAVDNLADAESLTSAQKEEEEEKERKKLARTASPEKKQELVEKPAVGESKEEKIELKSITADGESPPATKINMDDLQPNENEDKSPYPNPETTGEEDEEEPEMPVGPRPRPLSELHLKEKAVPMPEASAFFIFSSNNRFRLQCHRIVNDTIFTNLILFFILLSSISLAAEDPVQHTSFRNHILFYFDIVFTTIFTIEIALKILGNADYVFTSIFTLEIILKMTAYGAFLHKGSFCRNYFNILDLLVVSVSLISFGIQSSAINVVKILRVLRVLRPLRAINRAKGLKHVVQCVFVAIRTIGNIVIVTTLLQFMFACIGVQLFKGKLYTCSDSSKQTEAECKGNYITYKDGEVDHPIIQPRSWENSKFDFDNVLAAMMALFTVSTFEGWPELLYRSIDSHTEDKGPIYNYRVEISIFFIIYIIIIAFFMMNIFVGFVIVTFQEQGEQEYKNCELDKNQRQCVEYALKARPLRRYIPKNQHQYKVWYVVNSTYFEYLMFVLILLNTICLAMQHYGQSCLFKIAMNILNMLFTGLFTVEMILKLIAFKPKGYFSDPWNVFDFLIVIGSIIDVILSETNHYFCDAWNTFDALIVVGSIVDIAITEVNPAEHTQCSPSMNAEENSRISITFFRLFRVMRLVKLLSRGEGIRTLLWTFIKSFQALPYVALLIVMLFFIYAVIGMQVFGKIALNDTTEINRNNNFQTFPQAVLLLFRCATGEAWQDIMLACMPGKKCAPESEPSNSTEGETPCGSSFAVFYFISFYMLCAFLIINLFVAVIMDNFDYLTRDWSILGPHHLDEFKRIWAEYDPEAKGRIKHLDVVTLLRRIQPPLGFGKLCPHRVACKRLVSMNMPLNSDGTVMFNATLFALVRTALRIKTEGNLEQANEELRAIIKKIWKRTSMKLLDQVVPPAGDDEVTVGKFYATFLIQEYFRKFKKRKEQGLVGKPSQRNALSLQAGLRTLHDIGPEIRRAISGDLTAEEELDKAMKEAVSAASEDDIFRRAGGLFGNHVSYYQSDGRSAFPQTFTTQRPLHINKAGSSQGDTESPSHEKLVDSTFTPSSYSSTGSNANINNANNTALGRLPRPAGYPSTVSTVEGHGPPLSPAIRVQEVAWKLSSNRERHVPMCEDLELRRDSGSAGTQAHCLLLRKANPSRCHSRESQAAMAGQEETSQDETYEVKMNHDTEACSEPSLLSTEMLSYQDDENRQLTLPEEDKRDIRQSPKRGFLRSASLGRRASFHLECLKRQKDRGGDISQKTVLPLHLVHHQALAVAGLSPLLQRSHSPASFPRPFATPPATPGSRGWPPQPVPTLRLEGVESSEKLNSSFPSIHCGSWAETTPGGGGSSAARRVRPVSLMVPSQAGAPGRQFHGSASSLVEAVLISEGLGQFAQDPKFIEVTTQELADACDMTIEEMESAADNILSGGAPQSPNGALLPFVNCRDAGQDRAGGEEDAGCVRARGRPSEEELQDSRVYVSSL

[6] = target: native mouse Cav1.2 L-type calcium channel in cardiac myocytes (mouse (endogenous in cardiac myocytes)) (UniProt Q01815)
native mouse Cav1.2 L-type calcium channel in cardiac myocytes (mouse (endogenous in cardiac myocytes)), sequence (Q01815 whole entry): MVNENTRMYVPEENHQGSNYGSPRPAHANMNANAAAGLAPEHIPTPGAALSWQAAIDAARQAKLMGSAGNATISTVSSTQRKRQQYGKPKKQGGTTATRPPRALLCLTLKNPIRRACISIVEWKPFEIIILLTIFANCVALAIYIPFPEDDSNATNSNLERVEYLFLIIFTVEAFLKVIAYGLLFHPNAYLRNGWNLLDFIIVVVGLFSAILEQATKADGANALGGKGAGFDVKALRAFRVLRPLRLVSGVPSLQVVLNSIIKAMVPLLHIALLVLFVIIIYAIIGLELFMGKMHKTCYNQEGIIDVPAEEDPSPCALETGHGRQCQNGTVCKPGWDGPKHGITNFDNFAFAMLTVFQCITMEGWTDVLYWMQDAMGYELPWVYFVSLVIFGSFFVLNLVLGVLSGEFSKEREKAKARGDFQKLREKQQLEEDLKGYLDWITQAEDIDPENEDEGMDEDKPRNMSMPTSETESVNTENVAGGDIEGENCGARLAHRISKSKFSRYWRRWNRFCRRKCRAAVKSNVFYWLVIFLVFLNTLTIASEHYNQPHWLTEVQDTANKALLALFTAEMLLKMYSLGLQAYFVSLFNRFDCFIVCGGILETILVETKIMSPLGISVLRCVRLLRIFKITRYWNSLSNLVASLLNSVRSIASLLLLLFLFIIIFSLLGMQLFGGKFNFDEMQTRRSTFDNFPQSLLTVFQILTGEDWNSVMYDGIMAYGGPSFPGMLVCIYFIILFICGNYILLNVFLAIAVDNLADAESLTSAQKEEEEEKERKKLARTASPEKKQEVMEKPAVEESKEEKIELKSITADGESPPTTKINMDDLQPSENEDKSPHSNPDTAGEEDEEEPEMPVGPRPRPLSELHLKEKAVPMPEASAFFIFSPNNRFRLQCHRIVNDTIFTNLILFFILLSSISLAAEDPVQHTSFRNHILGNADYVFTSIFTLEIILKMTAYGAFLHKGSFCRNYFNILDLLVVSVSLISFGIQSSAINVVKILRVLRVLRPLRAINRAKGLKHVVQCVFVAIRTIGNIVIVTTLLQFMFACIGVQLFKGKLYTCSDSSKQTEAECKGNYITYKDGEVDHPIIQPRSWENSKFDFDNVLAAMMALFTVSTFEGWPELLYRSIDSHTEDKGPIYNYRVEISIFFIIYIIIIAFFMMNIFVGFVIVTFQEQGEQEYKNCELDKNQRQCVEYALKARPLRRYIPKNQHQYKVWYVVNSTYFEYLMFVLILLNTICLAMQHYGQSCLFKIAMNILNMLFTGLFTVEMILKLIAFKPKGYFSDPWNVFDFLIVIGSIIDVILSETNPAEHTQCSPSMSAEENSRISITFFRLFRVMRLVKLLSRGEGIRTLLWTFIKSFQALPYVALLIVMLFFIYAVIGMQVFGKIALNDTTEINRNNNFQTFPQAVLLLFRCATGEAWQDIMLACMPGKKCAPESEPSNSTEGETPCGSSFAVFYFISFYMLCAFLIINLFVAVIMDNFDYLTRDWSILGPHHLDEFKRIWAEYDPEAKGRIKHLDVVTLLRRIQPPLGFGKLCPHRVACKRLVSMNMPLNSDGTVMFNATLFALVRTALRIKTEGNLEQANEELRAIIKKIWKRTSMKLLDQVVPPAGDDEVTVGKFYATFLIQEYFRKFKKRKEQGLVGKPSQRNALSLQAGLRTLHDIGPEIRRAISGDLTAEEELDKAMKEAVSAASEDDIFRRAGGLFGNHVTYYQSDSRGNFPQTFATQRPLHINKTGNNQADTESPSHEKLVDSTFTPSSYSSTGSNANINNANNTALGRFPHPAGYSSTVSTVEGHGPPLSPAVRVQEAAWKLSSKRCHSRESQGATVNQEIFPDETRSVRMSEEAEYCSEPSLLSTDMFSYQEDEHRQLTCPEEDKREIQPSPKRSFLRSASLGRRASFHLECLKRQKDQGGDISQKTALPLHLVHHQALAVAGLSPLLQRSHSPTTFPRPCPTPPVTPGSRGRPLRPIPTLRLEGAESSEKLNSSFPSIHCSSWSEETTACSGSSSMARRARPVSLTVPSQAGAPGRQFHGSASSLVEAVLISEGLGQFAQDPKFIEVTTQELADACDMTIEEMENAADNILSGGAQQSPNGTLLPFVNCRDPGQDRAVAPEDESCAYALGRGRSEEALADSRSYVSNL

[7] = target: native mouse Cav1.2 L-type calcium channel in cardiac myocytes (mouse (endogenous in cardiac myocytes)) (UniProt Q01815); remark: listed apart in the source
[8] = target: native mouse Cav1.2 L-type calcium channel in cardiac myocytes (mouse (endogenous in cardiac myocytes)) (UniProt Q01815); remark: listed apart in the source

## COc1ccc([C@@H]2Sc3ccccc3N(CCN(C)C)C(=O)[C@@H]2OC(C)=O)cc1 [Diltiazem]
Cav1.2 and Cav1.3
  selectivity between Cav1.2 and Cav1.3: without significant selectivity

## PTAMWP [L-calchin, short peptide between two Prolines at position 42 and 47 (PTAMWP) of Cas and FS2]
[1]
  reduction of ICav1.2: ≈ 30%
[2]
  IC50: ~5 µM
Isolated rat hearts
  effect on peak systolic pressure: reducing peak systolic pressure
Isolated rat hearts; ex vivo
  effect on heart rate: had no effect on heart rate

## COC(=O)C1=C(C)NC(C)=C(C(=O)OC)C1c1ccccc1[N+](=O)[O-] [nifedipine, reference compound]
[3]
  block of residual ICaL (Cav1.3-mediated): totally blocked
[4]
  effect on pacemaker activity of SAN myocytes: robustly slows pacemaker activity

## COc1ccc(CCN(C)CCCC(C#N)(c2ccc(OC)c(OC)c2)C(C)C)cc1OC (stereo not drawn) [Verapamil]
Cav1.2 and Cav1.3
  selectivity between Cav1.2 and Cav1.3: without significant selectivity

B1: calciseptine, synthetized analog (Latoxan L8109) (peptide)
chain: RICYIHKASLPRATKTCVENTCYKMFIRTQREYISERGCGCPTAMWPYQTECCKGDRCNK
[5]
  IC50 of inhibition of I (Cav1.2), whole-cell patch clamp on transfected HEK-293T cells (holding potential −60 mV, test 0 mV), dose-effect relationship: 0.092 µM
  inhibition of I (Cav1.2) in averaged current-to-voltage relationships, 300 nM Cas, membrane voltages from −20 mV to +30 mV, transfected HEK-293T cells: 60%
  percent inhibition of I (Cav1.2) in transfected HEK-293T cells, one-step protocol (−60 mV to 0 mV), Cas 100 nM to 1 µM (37% at 100 nM, 70% at 300 nM, 80% at 1 µM): 80%
[6]
  degree of inhibition of ICaL by 300 nM Cas, step to 0 mV from −60 mV, stimulation at 0.2 Hz: 62%
  degree of inhibition of ICaL by 300 nM Cas, step to 0 mV from −60 mV, stimulation at 1 Hz: 63%
  degree of inhibition of ICaL by 300 nM Cas, step to 0 mV from −60 mV, stimulation at 5 Hz: 58%
  percent block of Cav1.2-mediated ICaL in Cav1.3−/− SAN myocytes, 300 nM Cas, step to 0 mV from a holding potential of −40 mV: 68%
  percent block of Cav1.2-mediated ICaL in Cav1.3−/− SAN myocytes, 300 nM Cas, step to 0 mV from a holding potential of −60 mV: 67%
[7]
  reduction of total ICaL (I (Cav1.2)+I (Cav1.3)) in wild-type mouse SAN myocytes, voltage clamp, 1 µM Cas: 45%

## PTAMWP [L-calchin]
[8]
  reduction of I (Cav1.2) in dissociated mouse ventricular myocytes by synthetic L-calchin (preliminary experiments; concentration not stated): 30%
